This is an account of results in PMC4014737.

In this test the target is biotinylated yeast L3Δ21 peptide (S. cerevisiae) (UniProt P14126). The test can be described thus: SPR; Biacore 3000; biotinylated L3Δ21 peptide on an SA sensor chip (Fc2), PAP as analyte at 103, 94, 75 and 45 pM; 25 °C; HBS-EP (0.1 M HEPES pH 7.4, 0.15 M NaCl, 3 mM EDTA, 0.005% polysorbate 20); 1:1 Langmuir fit.
Chain of UniProt P14126 (P14126 1-21, stated change not applied): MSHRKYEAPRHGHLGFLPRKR

For orientation: Kd means the constant that tells how readily two partners part at equilibrium. Higher therefore signals a looser complex. For orientation: koff means a measure of how fast the partners let go of each other. Lower therefore signals slow dissociation. One may read the kon as the second-order rate constant of association. For “His-tagged pokeweed antiviral protein (PAP), recombinant (enzyme)”, the Kd stood at 24.8 nM, the koff turned out to be 4.6e-05 s⁻¹ and the kon is 1860 M⁻¹ s⁻¹.
